Test results from paper PMC9000616 (Molecules, 2022).

B1: Capsicum annuum phospholipase A1 homolog (enzyme, UniProt A5YW95 1-397, looked up)
chain: MGSMAEKWEELSGKNNWEGLLNPLDLDLRKYIIQYGELAQATYDTFISERASKYAGASRYSMENFFTKVGLDPSKYHVTKFFYGTSSIPLPDAFMTRSLSREAWSKESNFMGYIAVATDEGKVALGRRDIVINWRGTLQVLEWVNDLQFLLVPAPKVFGDGGLLPLFHPLVHHGFHNIYTTENPRSQFNKTCVRDQVMEEVKRLVEEYKNEEVSITVTGHSLGASLATLNAVDIAFNGINKSSNGKEFPVTAFVFASPKVGDLNFHKAFSKLKHLHILRIHNLLDIVPKYPPVGYFDVGQELMIDTTKSPYVKPPGEVVSWHLLEPYLHGIAGTQGIGMTAGFKLEVNRDISLVNKQWMILKDEYCIPPLWWSEKHKGMVQQQDGSWLLQDRDDYEF
notes: CaPLA1, phospholipase A1 of hot pepper (Capsicum annuum), full length, UniProt A5YW95; A non-native Gly from the TEV site (ENLYFQG) is left at the N-terminus after cleavage; Homodimer by crystal structure and AUC; also called CaPLA1; source: E. coli BL21 (DE3), purified (Ni-NTA, TEV cleavage, Ni-NTA, SEC); not shown: His6, N-terminal, cleaved
B2: Arabidopsis thaliana DAD1-like seedling establishment-related lipase (enzyme, UniProt O49523 1-419, looked up)
chain: MKRKKKEEEEEKLIVTREFAKRWRDLSGQNHWKGMLQPLDQDLREYIIHYGEMAQAGYDTFNINTESQFAGASIYSRKDFFAKVGLEIAHPYTKYKVTKFIYATSDIHVPESFLLFPISREGWSKESNWMGYVAVTDDQGTALLGRRDIVVSWRGSVQPLEWVEDFEFGLVNAIKIFGERNDQVQIHQGWYSIYMSQDERSPFTKTNARDQVLREVGRLLEKYKDEEVSITICGHSLGAALATLSATDIVANGYNRPKSRPDKSCPVTAFVFASPRVGDSDFRKLFSGLEDIRVLRTRNLPDVIPIYPPIGYSEVGDEFPIDTRKSPYMKSPGNLATFHCLEGYLHGVAGTQGTNKADLFRLDVERAIGLVNKSVDGLKDECMVPGKWRVLKNKGMAQQDDGSWELVDHEIDDNEDLDF
notes: AtDSEL, phospholipase A1 of Arabidopsis thaliana, full length, UniProt O49523; A non-native Gly from the TEV site (ENLYFQG) is left at the N-terminus after cleavage; Homodimer by crystal structure and AUC; also called AtDSEL; source: E. coli BL21 (DE3), purified (Ni-NTA, TEV cleavage, Ni-NTA, SEC); not shown: His6, N-terminal, cleaved

Biological target: the molecule itself
Assay: AUC; sedimentation velocity, 20 °C, Rayleigh interference optics, c(s) analysis converted into c(M); AtDSEL at 3.0, 1.5 and 0.8 mg/mL; CaPLA1 at 1.1, 0.5 and 0.3 mg/mL

Protein	stoichiometry N
B1	2
B2	2
